Laboratory results: US20240360227A1

What was measured:
[1] = target: Recombinant human his-tagged IGF R extracellular domain protein (human) (UniProt P08069); test: SPR, Ab captured via anti-huIgG Fc, dissociation at pH 6
[2] = target: Recombinant human his-tagged IGF R extracellular domain protein (human) (UniProt P08069); test: SPR, Ab captured via anti-huIgG Fc, pH 7.4

Row | Binder | Kd [1] | koff [1] | kon [1] | Kd [2] | koff [2] | kon [2]
1 | VRDN-02048 (antibody, V domains shown) VH: QVQLQESGPGLVKPSETLSLTCTVSGYSITGGYLWNWIRQPPGKGLEWIGYISYDGTNNYKPSLKDRVTISRDTSKNQFSLKLSSVTAADTAVYYCARYGRVFFDYWGQGTLVTVSS VL: DIVMTQSPLSLPVTPGEPASISCRSSQSIVHSNGNTYLQWYLQKPGQSPQLLIYKVSNHLYGVPDRFSGSGSGTDFTLKISRVEAEDVGVYYCFQGSHVPWTFGQGTKVEIK | 1.03 nM | 8.1e-05 s⁻¹ | 78800 M⁻¹ s⁻¹ | 0.55 nM | 4.17e-05 s⁻¹ | 75700 M⁻¹ s⁻¹
2 | VRDN-02049 (antibody, V domains shown) VH: QVQLQESGPGLVKPSETLSLTCTVSGYSITGGYLWNWIRQPPGKGLEWIGYISYDGTNNYKPSLKDRVTISRDTSKNQFSLKLSSVTAADTAVYYCARYGRVFFDYWGQGTLVTVSS VL: DIVMTQSPLSLPVTPGEPASISCRSSQSIVHSNGNTYLQWYLQKPGQSPQLLIYKVSNRHYGVPDRFSGSGSGTDFTLKISRVEAEDVGVYYCFQGSHVPWTFGQGTKVEIK | 1.15 nM | 9.15e-05 s⁻¹ | 79500 M⁻¹ s⁻¹ | 0.946 nM | 7.92e-05 s⁻¹ | 83700 M⁻¹ s⁻¹
3 | VRDN-02050 (antibody, V domains shown) VH: QVQLQESGPGLVKPSETLSLTCTVSGYSITGGYLWNWIRQPPGKGLEWIGYISYDGTNNYKPSLKDRVTISRDTSKNQFSLKLSSVTAADTAVYYCARYGRVFFDYWGQGTLVTVSS VL: DIVMTQSPLSLPVTPGEPASISCRSSQSIVHSNGNTYLQWYLQKPGQSPQLLIYKVSNRLHGVPDRFSGSGSGTDFTLKISRVEAEDVGVYYCFQGSHVPWTFGQGTKVEIK | 1.2 nM | 9.87e-05 s⁻¹ | 82000 M⁻¹ s⁻¹ | 0.603 nM | 6.7e-05 s⁻¹ | 111000 M⁻¹ s⁻¹
4 | VRDN-02051 (antibody, V domains shown) VH: QVQLQESGPGLVKPSETLSLTCTVSGYSITGGYLWNWIRQPPGKGLEWIGYISYDGTNNYKPSLKDRVTISRDTSKNQFSLKLSSVTAADTAVYYCARYGRVFFDYWGQGTLVTVSS VL: DIVMTQSPLSLPVTPGEPASISCRSSQSIVHSNGNTYLQWYLQKPGQSPQLLIYKVSNRLYGVPDRFSGSGSGTDFTLKISRVEAEDVGVYYCHQGSHVPWTFGQGTKVEIK | 1.3 nM | 8.62e-05 s⁻¹ | 66600 M⁻¹ s⁻¹ | 1.03 nM | 7.59e-05 s⁻¹ | 74000 M⁻¹ s⁻¹
5 | VRDN-02005 (antibody, V domains shown) VH: QVQLQESGPGLVKPSETLSLTCTVSGYSIHGGYLWNWIRQPPGKGLEWIGYISYDGTNNYKPSLKDRVTISRDTSKNQFSLKLSSVTAADTAVYYCARYGRVFFDYWGQGTLVTVSS VL: DIVMTQSPLSLPVTPGEPASISCRSSQSIVHSNGNTYLQWYLQKPGQSPQLLIYKVSNRLYGVPDRFSGSGSGTDFTLKISRVEAEDVGVYYCFQGSHVPWTFGQGTKVEIK | 1.16 nM | 0.000119 s⁻¹ | 102000 M⁻¹ s⁻¹ | 0.71 nM | 6.09e-05 s⁻¹ | 85800 M⁻¹ s⁻¹
6 | VRDN-02052 (antibody, V domains shown) VH: QVQLQESGPGLVKPSETLSLTCTVSGYSITGGYLWNWIRQPPGKGLEWIGYISYDGTNNYKPSLKDRVTISRDTSKNQFSLKLSSVTAADTAVYYCARYGRVFFDYWGQGTLVTVSS VL: DIVMTQSPLSLPVTPGEPASISCRSSQSIVHSNGNTYLQWYLQKPGQSPQLLIYKVSNRLYGVPDRFSGSGSGTDFTLKISRVEAEDVGVYYCFHGSHVPWTFGQGTKVEIK | 1.33 nM | 0.000156 s⁻¹ | 117000 M⁻¹ s⁻¹ | 0.564 nM | 5.7e-05 s⁻¹ | 101000 M⁻¹ s⁻¹
7 | VRDN-02053 (antibody, V domains shown) VH: QVQLQESGPGLVKPSETLSLTCTVSGYSITGGYLWNWIRQPPGKGLEWIGYISYDGTNNYKPSLKDRVTISRDTSKNQFSLKLSSVTAADTAVYYCARYGRVFFDYWGQGTLVTVSS VL: DIVMTQSPLSLPVTPGEPASISCRSSQSIVHSNGNTYLQWYLQKPGQSPQLLIYKVSNRLYGVPDRFSGSGSGTDFTLKISRVEAEDVGVYYCFQHSHVPWTFGQGTKVEIK | 3.48 nM | 0.000193 s⁻¹ | 55600 M⁻¹ s⁻¹ | 7.18 nM | 0.00243 s⁻¹ | 338000 M⁻¹ s⁻¹
8 | VRDN-02054 (antibody, V domains shown) VH: QVQLQESGPGLVKPSETLSLTCTVSGYSITGGYLWNWIRQPPGKGLEWIGYISYDGTNNYKPSLKDRVTISRDTSKNQFSLKLSSVTAADTAVYYCARYGRVFFDYWGQGTLVTVSS VL: DIVMTQSPLSLPVTPGEPASISCRSSQSIVHSNGNTYLQWYLQKPGQSPQLLIYKVSNRLYGVPDRFSGSGSGTDFTLKISRVEAEDVGVYYCFQGHHVPWTFGQGTKVEIK | 1.14 nM | 8.07e-05 s⁻¹ | 70700 M⁻¹ s⁻¹ | 0.838 nM | 6.19e-05 s⁻¹ | 73900 M⁻¹ s⁻¹
9 | VRDN-02055 (antibody, V domains shown) VH: QVQLQESGPGLVKPSETLSLTCTVSGYSITGGYLWNWIRQPPGKGLEWIGYISYDGTNNYKPSLKDRVTISRDTSKNQFSLKLSSVTAADTAVYYCARYGRVFFDYWGQGTLVTVSS VL: DIVMTQSPLSLPVTPGEPASISCRSSQSIVHSNGNTYLQWYLQKPGQSPQLLIYKVSNRLYGVPDRFSGSGSGTDFTLKISRVEAEDVGVYYCFQGSHHPWTFGQGTKVEIK | 1.1 nM | 0.000101 s⁻¹ | 91800 M⁻¹ s⁻¹ | 0.509 nM | 4.92e-05 s⁻¹ | 96600 M⁻¹ s⁻¹
10 | VRDN-02056 (antibody, V domains shown) VH: QVQLQESGPGLVKPSETLSLTCTVSGYSITGGYLWNWIRQPPGKGLEWIGYISYDGTNNYKPSLKDRVTISRDTSKNQFSLKLSSVTAADTAVYYCARYGRVFFDYWGQGTLVTVSS VL: DIVMTQSPLSLPVTPGEPASISCRSSQSIVHSNGNTYLQWYLQKPGQSPQLLIYKVSNRLYGVPDRFSGSGSGTDFTLKISRVEAEDVGVYYCFQGSHVHWTFGQGTKVEIK | 1.13 nM | 9.75e-05 s⁻¹ | 86000 M⁻¹ s⁻¹ | 0.237 nM | 1.98e-05 s⁻¹ | 83500 M⁻¹ s⁻¹
11 | VRDN-02057 (antibody, V domains shown) VH: QVQLQESGPGLVKPSETLSLTCTVSGYSITGGYLWNWIRQPPGKGLEWIGYISYDGTNNYKPSLKDRVTISRDTSKNQFSLKLSSVTAADTAVYYCARYGRVFFDYWGQGTLVTVSS VL: DIVMTQSPLSLPVTPGEPASISCRSSQSIVHSNGNTYLQWYLQKPGQSPQLLIYKVSNRLYGVPDRFSGSGSGTDFTLKISRVEAEDVGVYYCFQGSHVPHTFGQGTKVEIK | 1.4 nM | 0.000165 s⁻¹ | 118000 M⁻¹ s⁻¹ | 0.72 nM | 6.9e-05 s⁻¹ | 95800 M⁻¹ s⁻¹
12 | VRDN-02058 (antibody, V domains shown) VH: QVQLQESGPGLVKPSETLSLTCTVSGYSITGGYLWNWIRQPPGKGLEWIGYISYDGTNNYKPSLKDRVTISRDTSKNQFSLKLSSVTAADTAVYYCARYGRVFFDYWGQGTLVTVSS VL: DIVMTQSPLSLPVTPGEPASISCRSSQSIVHSNGNTYLQWYLQKPGQSPQLLIYKVSNRLYGVPDRFSGSGSGTDFTLKISRVEAEDVGVYYCFQGSHVPWHFGQGTKVEIK | 1.18 nM | 9.52e-05 s⁻¹ | 80800 M⁻¹ s⁻¹ | 0.836 nM | 8.5e-05 s⁻¹ | 102000 M⁻¹ s⁻¹
13 | VRDN-02060 (antibody, V domains shown) VH: QVQLQESGPGLVKPSETLSLTCTVSGYSITGGYLWNWIRQPPGKGLEWIGYISYHGTNNYKPSLKDRVTISRDTSKNQFSLKLSSVTAADTAVYYCARYGRVFFDYWGQGTLVTVSS VL: DIVMTQSPLSLPVTPGEPASISCRSHQSIVHSNGNTYLQWYLQKPGQSPQLLIYKVSNRLYGVPDRFSGSGSGTDFTLKISRVEAEDVGVYYCFQGSHVPWTFGQGTKVEIK | 0.394 nM | 6.07e-05 s⁻¹ | 154000 M⁻¹ s⁻¹ | 0.249 nM | 2.77e-05 s⁻¹ | 111000 M⁻¹ s⁻¹
14 | VRDN-02061 (antibody, V domains shown) VH: QVQLQESGPGLVKPSETLSLTCTVSGYSITGGYLWNWIRQPPGKGLEWIGYISYDGTNNYKPSLKDRVTISRDTSKNQFSLKLSSVTAADTAVYYCARHGRVFFDYWGQGTLVTVSS VL: DIVMTQSPLSLPVTPGEPASISCRSHQSIVHSNGNTYLQWYLQKPGQSPQLLIYKVSNRLYGVPDRFSGSGSGTDFTLKISRVEAEDVGVYYCFQGSHVPWTFGQGTKVEIK | 0.299 nM | 4.34e-05 s⁻¹ | 145000 M⁻¹ s⁻¹ | 0.28 nM | 2.65e-05 s⁻¹ | 94700 M⁻¹ s⁻¹
15 | VRDN-02062 (antibody, V domains shown) VH: QVQLQESGPGLVKPSETLSLTCTVSGYSITGGYLWNWIRQPPGKGLEWIGYIHYDGTNNYKPSLKDRVTISRDTSKNQFSLKLSSVTAADTAVYYCARYGRVFFDYWGQGTLVTVSS VL: DIVMTQSPLSLPVTPGEPASISCRSSQSIVHSNGNTYLQWYLQKPGQSPQLLIYKVSNRLYGVPDRFSGSGSGTDFTLKISRVEAEDVGVYYCFHGSHVPWTFGQGTKVEIK | 0.166 nM | 2.82e-05 s⁻¹ | 170000 M⁻¹ s⁻¹ | 0.225 nM | 2.13e-05 s⁻¹ | 94300 M⁻¹ s⁻¹
16 | VRDN-02006 (antibody, V domains shown) VH: QVQLQESGPGLVKPSETLSLTCTVSGYSITHGYLWNWIRQPPGKGLEWIGYISYDGTNNYKPSLKDRVTISRDTSKNQFSLKLSSVTAADTAVYYCARYGRVFFDYWGQGTLVTVSS VL: DIVMTQSPLSLPVTPGEPASISCRSSQSIVHSNGNTYLQWYLQKPGQSPQLLIYKVSNRLYGVPDRFSGSGSGTDFTLKISRVEAEDVGVYYCFQGSHVPWTFGQGTKVEIK | 1.1 nM | 0.000101 s⁻¹ | 92300 M⁻¹ s⁻¹ | 1.08 nM | 8.49e-05 s⁻¹ | 78500 M⁻¹ s⁻¹
17 | VRDN-02063 (antibody, V domains shown) VH: QVQLQESGPGLVKPSETLSLTCTVSGYSITGGYLWNWIRQPPGKGLEWIGYISYHGTNNYKPSLKDRVTISRDTSKNQFSLKLSSVTAADTAVYYCARYGRVFFDYWGQGTLVTVSS VL: DIVMTQSPLSLPVTPGEPASISCRSSQSIVHSNGNTYLQWYLQKPGQSPQLLIYKVSNRLYGVPDRFSGSGSGTDFTLKISRVEAEDVGVYYCFHGSHVPWTFGQGTKVEIK | 0.284 nM | 3.97e-05 s⁻¹ | 140000 M⁻¹ s⁻¹ | 0.19 nM | 2.11e-05 s⁻¹ | 111000 M⁻¹ s⁻¹
